Substrate in data set [1]: O=C(O)C(=O)O
Put plainly: Oxalate oxidase kinetics, coupled horse radish peroxidase assay, OXOX-C. It is filed as biochemical, Ceriporiopsis subvermispora. An excerpt: (§1) Sequences of both OXOX C and G alleles were published by Escutia et al., 2005 and were deposited with EMBL: OXOX-C partial genomic DNA, Acession No. AJ746414; OXOX-C partial cDNA, Acession No. AJ563659; OXOX-G genomic DNA, Acession No. AJ563660; OXOX-G cDNA, Acession No. AJ746412. See also, Escutia et al., Cloning and sequencing of two Ceriporiopsis subvermispora bicupin oxalate oxidase allelic isoforms: implications for the reaction specificity of oxalate oxidases and decarboxylases. (2005). Based on published sequence, mature proteins of OXOX C (SEQ ID NO: 21) and G (SEQ ID NO: 22) were synthesized and fused to N-terminal barley alpha amylase signal sequence (BAA ss; SEQ ID NO:3). The fungal OXOX coding sequence was synthesized with codon usage suitable for expression in soybean (FIG. 1A) and E. coli (FIG. 1B).
(§2) The E. coli expression system was based on the published protocol of Escutia et al. Escutia et al., Cloning and sequencing of two Ceriporiopsis subvermispora bicupin oxalate oxidase allelic isoforms: implications for the reaction specificity of oxalate oxidases and decarboxylases. (2005). The coding sequence for the mature OXOX enzyme was inserted in E. coli expression vector pET32 (Invitrogen) to include a 6× histidine tag at the C-terminus. The resulting expression plasmid was transformed into E. coli strain BL21Star pLysS (Invitrogen).
(§3) E. coli cultures were grown at 37° C. At optical density 0.4, arabinose was added to a concentration or 0.4%. After another hour of growth at 37° C., MnCl2 was added to 5 mM and IPTG to 1 mM. Cultures were then grown at 25° C. for 16 hours. Cells were harvested by centrifugation at 4000 rpm for 10 min. The supernatant was discarded and cell pellets were kept at −80° C. for at least one hour. Pellets were resuspended in total 40 ml of lysis buffer with 50 mM phosphate buffer pH7, 2 mg/ml protease inhibitor (sigma P-8465), 100 mM KCL, 1/1000 lysozyme, 1/2000 endonuclease, and incubated at 37° C. with shaking for one hour, followed by sonication. Cellular debris was removed by centrifugation and the clarified supernatant was poured into a new tube. Nickel resin (Qiagen) was added. After a short period of incubation, the slurry was poured onto a column and washed with buffer. Purified OXOX protein was eluted from the resin in 50 mM succinate pH 5, 100 mM KCl. The E. coli expression procedure was scalable allowing large scale protein production for kinetic analysis as well as small scale production for high throughput screening of libraries.
(§4) Oxalate oxidase enzymatic activity was determined in a coupled reaction. Oxalate oxidase converts oxalic acid to carbon dioxide and hydrogen peroxide. In the presence of horse radish peroxidase, hydrogen peroxide reacts with 3-methyl-2-benzothiazolinone hydrazone (MBTH) and N,N-dimethylaniline (DMA) to form indamine dye, which can be detected spectrophotmetrically or colorimetrically as described by Laker, M. F., Hoffman, A. F., and Meeuse, J. D. (1980) Clinical Chemistry 26, 827-830. The coupled reaction was used for characterization of oxalate oxidase kinetic properties as well as in a screening procedure to identify oxalate oxidase variants with improved enzymatic properties.
(§5) More modest improvements in Km and Kcat were observed under lower pH conditions. Coupled reaction was preformed as described in Example 3. Enzyme kinetic parameters were determined by standard methods as described in Segel (1976) Biochemical calculations, 2nd Edition. John Wiley & Sons, London, New York, Sydney, Toronto.

Substrate in data set [2]: O=C(O)C(=O)O
In words: Oxalate oxidase kinetics, coupled horse radish peroxidase assay, OXOX-G. It is filed as biochemical, Ceriporiopsis subvermispora.
Source text: as §1, §2, §3, §4, §5

B1: Ceriporiopsis subvermispora oxalate oxidase OXOX-C, SEQ ID NO: 18 (Gelatoporia subvermispora B) (protein)
chain: RPTENGPQIVIANNAGTYLPVLRGSGTKSSSAADATQTVPFASDDPNPRLWDIDTKNLTKVTPERGQLGAKILGPDNLPIDLQNADTLAPPTTDSGSIPNPKWPFALSHNTLYSGGWVRIQNDEVMPIAKAMAGVNMRLEAGAIRELHWHNTPEWAYILKGTTQITAVDQNGRNYLANVGPGDLWYFPEGMPHSLQGTDANNEGSEFLLIFPDGTFDSSNQFMITDWLAHTPKDVIAKNFGVDISEFDRLPSHDLYIFPGVAPPLDAKAPEDPQGTIPLPYSFEFSKVKPTQYAGGTVKIADTRTFPIAKTISVAEVTVEPGAMRELHWHPTEDEWTFFIEGQARVTIFAGQSNAQTYDYQGGDIAYIPTAWGHYVENSGNTTLRFLEIFNSPLFEDVSLAQWIANTPPAIVKATLQLSDEVINTLNKSKAFVVG
Consider B1, for which the Km in data set [1] (other: pH 3.8, pH 3.8) worked out at 350 µM; in data set [1] (other: pH 4.8, pH 4.8), 1240 µM; in data set [1] (other: pH 5.8, pH 5.8), 5950 µM. Besides, the kcat in data set [1] (other: pH 3.8, pH 3.8) is 5.45 s⁻¹; in data set [1] (other: pH 4.8, pH 4.8), 2.74 s⁻¹; in data set [1] (other: pH 5.8, pH 5.8) it was 0.91 s⁻¹.

B2: Ceriporiopsis subvermispora oxalate oxidase OXOX-G, SEQ ID NO: 19 (Gelatoporia subvermispora) (protein)
chain: RPTGNDVFYLPRAVAVSSAGASSPASLSSGTESSSAAEPTETVPFASDDPNPRLWNIDTQDLSVVAPERGPLGAKIIGPDNLPLDIQNADTLAPPTTDSGSIPNAKWPFALSHNTLYTGGWVRIQNNEVLPIAKAMAGVNMRLEAGTIRELHWHNTPEWAYILKGTTQITAVDENGKNYLANVGPGDLWYFPEGMPHSLQGTNASDEGSEFLLIFPDGTFDASNQFMITDWLAHTPKDVIAKNFGVDISEFDRLPSHDLYIFPGVAPPLDATAPEDPQGTIPLPYSFEFSKVVPTQYAGGTVKIADTRTFPISKTISVAEITVEPGAMRELHWHPTEDEWTFFIEGQARVTLFAGESNAQTYDYQGGDIAYIPTAYGHYVENSGNTTLRFLEIFNSPLFQDVSLTQWLANTPRAIVKATLQLSDNVIDSLNKSKAFVVASD
As to B2, the Km was found to be 400 µM in data set [2] (other: pH 3.8, pH 3.8); 1370 µM in data set [2] (other: pH 4.8, pH 4.8); 6140 µM in data set [2] (other: pH 5.8, pH 5.8). Further, the kcat in data set [2] (other: pH 3.8, pH 3.8) came out at 4.80 s⁻¹; in data set [2] (other: pH 4.8, pH 4.8), 2.56 s⁻¹; in data set [2] (other: pH 5.8, pH 5.8), 0.82 s⁻¹.

The values above are taken from patent US20110191903A1, “ENGINEERING PLANT RESISTANCE TO DISEASES CAUSED BY PATHOGENS” (Pioneer Hi-Bred International, Inc., priority 2009, published 2011).
